From article PMC4877575

Columns and labels:
[1] = molecular target: polarity-marked microtubules (polymerised alpha-beta tubulin) (porcine) (UniProt P02554); test: single molecule fluorescence motility assay; purified Cin8-3GFP-6His variants on polarity-marked Taxol MTs; MB-45 (MB with 45 mM NaCl, IS = 0.187), 4 mM ATP; 90 s recordings
[2] = molecular target: polarity-marked microtubules (polymerised alpha-beta tubulin) (porcine) (UniProt P02554); test: single molecule fluorescence motility assay; purified Cin8-3GFP-6His variants on polarity-marked Taxol MTs; MB-90 (MB with 90 mM NaCl, IS = 0.232), 4 mM ATP; 90 s recordings
[3] = molecular target: polarity-marked microtubules (polymerised alpha-beta tubulin) (porcine) (UniProt P02554); test: single molecule fluorescence motility assay; purified Cin8-3GFP-6His variants on polarity-marked Taxol MTs; MB-135 (MB with 135 mM NaCl, IS = 0.277), 4 mM ATP; 90 s recordings
[4] = molecular target: polarity-marked microtubules (polymerised alpha-beta tubulin) (porcine) (UniProt P02554); test: single molecule fluorescence motility assay; Cin8-3GFP variants in whole cell extract on polarity-marked Taxol MTs; MB-80 (MB with 80 mM NaCl, IS = 0.222), 4 mM ATP; 90 s recordings, 1 s frames
[5] = molecular target: polarity-marked microtubules (polymerised alpha-beta tubulin) (porcine) (UniProt P02554); test: single molecule fluorescence motility assay; Cin8-3GFP variants in whole cell extract on polarity-marked Taxol MTs; MB-30 (MB with 30 mM NaCl, IS = 0.172), 4 mM ATP; 90 s recordings, 1 s frames

Substance | % of moving molecules with interaction times longer than 90 s [1] [%] | % of moving molecules with interaction times longer than 90 s [2] [%] | % of moving molecules with interaction times longer than 90 s [3] [%] | % of moving molecules with interaction times longer than 90 s [4] [%] | % of moving molecules with interaction times longer than 90 s [5] [%]
purified wild type Cin8-3GFP-6His (plasmid pOS2) (from UniProt P27895 1-1000) (natural protein) | 71 | 53 | 14 | – | –
wild type Cin8-3GFP (whole cell extract, strain LGY 2055) (from UniProt P27895 1-1000) (natural protein) | – | – | – | 21 | 75
